# Laboratory results reported in patent US20110311550A1 (Scripps Research, published 2011).
# B1: N4 IgG (antibody, V domains shown)
# VH: VQLLEQSGPEVKKPGDSLRISCKMSGDSLVTTWIGWVRQKPGQGLEWMGIINPGDSSTNIYPGDSATRYGPSFQGQVTISIDKSTSTAYLQWNNVKASDTGIYYCARHVPVPISGTFLWREREMHDFGYFDDWGQGTLVIVSS
# VL: ELTLTQSPGTLSLSPGERATLSCRASQSVSNNYLAWYQQKPGQAPRLLIYGASSRATGIPDRFSGSGSGTGFTLIISRLEPEDFAVYYCQQYGSSSITFGQGTRLEIKR
# notes: also called IgG N4
# What was measured:
# Test in all cases: ELISA, lectin-captured E1E2 lysate, Ab 1 ug/ml;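 note: E1E2 captured on Galanthus nivalis lectin-coated plates, bound antibody read out via HRP-linked secondary antibody with TMB colorimetric substrate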
# [1] = biological target: E1E2 complex (H77) with E2 mutation A642G (HCV genotype 1a, isolate H77, UniProt P27958 192-383; P27958 384-746)
# [2] = biological target: E1E2 complex (H77) with E2 mutation T425A (HCV genotype 1a, isolate H77, UniProt P27958 192-383; P27958 384-746)
# [3] = biological target: E1E2 complex (H77) with E2 mutation R614A (HCV genotype 1a, isolate H77, UniProt P27958 192-383; P27958 384-746)
binder,measurement,setting,value
B1,Binding relative to wt (%),[1],65%
same,Binding relative to wt (%),[2],100%
same,Binding relative to wt (%),[3],16%
